From patent US7829301B2, “Screening assays for binding antagonists of the AMD-associated variant of factor H (H384)” (The University of Manchester, priority 2006, dated 2010)
Changes are numbered by the printed parent chain.

T1: FMOD (Bos taurus, UniProt P13605)
T1 construct: FMOD was isolated from bovine articular cartilage; from tissue; host or cells: bovine articular cartilage
T1 sequence (P13605 19-376): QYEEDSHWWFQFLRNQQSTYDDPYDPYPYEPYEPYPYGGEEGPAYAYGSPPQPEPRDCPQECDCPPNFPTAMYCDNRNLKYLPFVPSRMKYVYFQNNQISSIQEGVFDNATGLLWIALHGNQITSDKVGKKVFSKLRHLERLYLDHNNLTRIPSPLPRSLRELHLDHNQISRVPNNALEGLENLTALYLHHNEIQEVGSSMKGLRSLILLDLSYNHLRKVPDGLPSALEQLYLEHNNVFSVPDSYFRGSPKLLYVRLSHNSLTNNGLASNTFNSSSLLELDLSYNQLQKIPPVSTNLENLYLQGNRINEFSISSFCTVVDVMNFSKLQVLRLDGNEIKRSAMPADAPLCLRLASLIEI

B1: FHCCP6-8(H384): recombinant protein of Factor H CCPs 6-8, H384 allotype, with N-terminal non-authentic glycine (SEQ ID NO: 1) (protein, listed as Homo sapiens)
chain: MGTLKPCDYPDIKHGGLYHENMRRPYFPVAVGKYYSYYCDEHFETPSGSYWDHIHCTQDGWSPAVPCLRKCYFPYLENGYNQNHGRKFVQGKSIDVACHPGYALPKAQTTVTCMENGWSPTPRCIRVKTCSKSSIDIENGFISESQYTYALKEKAKYQCKLGYVTADGETSGSITCGKDGWSAQPTCI
modifications: VARIANT (1)...(188) Protein sequence of the FHCCP6-8 (H384) construct
B2: FHCCP6-8(Y384): recombinant Factor H CCPs 6-8, Y384 variant obtained by site-directed mutagenesis (SEQ ID NO: 3) (protein, listed as Homo sapiens)
chain: B1 chain with H84Y
modifications: VARIANT (1)...(188) FHCCP6-8 (Y384 allotype of mature Factor H)

Tests used:
necrotic Jurkat T cells = test: Flow cytometry binding to necrotic cells; type: cell-based; details: 10 μg/ml
Protocol: Jurkat T cells (ATCC), were grown in RPMI, supplemented with glutamine, penicillin, streptomycin and 10% (v/v) heat inactivated FCS (all from Invitrogen). Necrosis was induced by heat whereby the cells were brought to a concentration of 10^6 per ml and incubated at 56° C. for 30 minutes in RPMI 1640 without FCS (Trouw et al. (2005) J. Exp. Med. 201, 1937-1948).
Binding of FHCCP6-8 variants to necrotic cells was analyzed using flow cytometry. Protein binding was analyzed by incubating cells with varying concentrations of the FHCCP6-8 variants (0 to 10 μg/ml) in FACS binding buffer (10 mM HEPES, 150 mM NaCl, 5 mM KCl, 1 mM MgCl2, 1.8 mM CaCl2), with shaking for 30 minutes at room temperature. After washing twice in the same buffer, cells were stained with goat anti-FH polyclonal antibodies (Quidel) for 30 minutes at room temperature. This was followed by matched FITC-labelled secondary antibodies (Dako).

FMOD = biological target: T1, FMOD; test: Protein/protein binding assay with coated FMOD; parameters: species or system bovine
Protocol: FMOD was isolated from bovine articular cartilage (Heinghrd et al., (1986) J. Biol. Chem. 261, 13866-13872) and recombinant CRP was obtained from Calbiochem. Deglycosylated FMOD was prepared by treatment with N-glycosiadase F (Roche Applied Science) as previously described (Sjöberg et al. (2005) J. Biol. Chem. 280, 32301-32308).
CRP or FMOD was coated overnight at 4° C. onto microtiter plates (Maxisorp, Nunc) at a concentration of 10 μg/ml in 75 mM sodium carbonate buffer, pH 9.6. Wells treated only with coating buffer or 1% (w/v) BSA (Sigma) in coating buffer (for the assays involving FMOD) were used as negative controls. Between each step the wells were washed extensively with 50 mM Tris-HCl, 150 mM NaCl, 0.1% (v/v) Tween 20, pH 7.5. All wells were blocked with 1% (w/v) BSA (Sigma) in phosphate buffered saline (Invitrogen) for 1 hour at 37° C. […] The amount of bound protein was assessed using a goat polyclonal anti-FH antibody (Quidel, Cat # A312) followed by HRP-labeled anti-goat secondary antibodies (Dako) and the OPD development kit (Dako). Detection of biotinylated protein was performed using a StreptABComplex/HRP-kit from Dako, and in both cases the absorbance at 490 nm was measured to quantify protein binding.

Molecule | binding to necrotic cells relative to the other variant (necrotic Jurkat T cells) | binding to immobilized FMOD relative to the other variant (FMOD; biotinylated FHCCP6-8 variants, all concentrations tested) | affinity for FMOD compared to H384 variant (FMOD; direct binding assay)
B1 | binds necrotic cells better |  | 
B2 |  | significantly stronger signals | affinity is increased
